The values below come from patent US20230045712A1 (AstraZeneca / MedImmune, published 2023).

The assay has as its target T1, human endothelial lipase (EL) (human, UniProt Q9Y5X9 21-500, limits assumed).
T1 construct: The assay used endogenous EL in human plasma and a bought recombinant EL standard (Origene Technologies); also called human EL
T1 sequence: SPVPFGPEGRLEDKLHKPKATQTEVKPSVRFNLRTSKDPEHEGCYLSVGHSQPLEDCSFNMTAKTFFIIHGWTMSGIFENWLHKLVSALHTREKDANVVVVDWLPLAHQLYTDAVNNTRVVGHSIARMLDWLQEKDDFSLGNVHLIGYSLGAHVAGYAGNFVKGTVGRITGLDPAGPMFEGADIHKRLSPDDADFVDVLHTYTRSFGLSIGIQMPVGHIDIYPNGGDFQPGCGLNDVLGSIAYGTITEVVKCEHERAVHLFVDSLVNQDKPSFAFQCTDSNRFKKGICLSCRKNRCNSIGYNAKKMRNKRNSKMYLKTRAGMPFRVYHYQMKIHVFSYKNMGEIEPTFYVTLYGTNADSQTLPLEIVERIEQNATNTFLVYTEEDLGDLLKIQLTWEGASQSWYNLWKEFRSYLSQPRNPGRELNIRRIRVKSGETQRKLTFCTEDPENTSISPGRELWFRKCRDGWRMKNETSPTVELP
Briefly: MSD immunoassay of human plasma: plate coated with MEDI5884 captures EL, which is detected with a biotinylated EL detection antibody and streptavidin sulfo-TAG. Plasma came from subjects with stable coronary heart disease given three monthly subcutaneous doses of MEDI5884 or placebo. The loss of capturable EL after dosing is what the filing calls target engagement. Here is the method: In particular, the amount of hEL bound by MEDI5884 in human plasma was measured using the Meso Scale Diagnostics (MSD) based immunoassay platform. Briefly, wells on a 96-well plate were coated with MEDI5884 and incubated overnight at 4° C. The next day, wells were washed with PBS containing 0.05% Tween20 wash buffer and blocked with I-Block Buffer (Applied Biosystems) for one hour at room temperature. Plates were washed. Then recombinant EL protein standard (Origene Technologies) and human plasma samples were added to corresponding wells and incubated for one hour at room temperature. After washing, a biotinylated EL detection antibody (Origene Technologies) was added to corresponding wells and incubated for one hour at room temperature. Plates were washed, then a streptavidin, sulfo-TAG antibody (MSD) was added to corresponding wells and incubated for one hour at room temperature. After washing, wells were incubated with Read buffer (MSD). Plates were read using the MESO Sector S 600 plate reader, and data was analyzed using the MSD Discovery Workbench software analysis program.

B1: MEDI5884 (antibody, human IgG4 S228P, kappa, V domains shown)
VH: QVQLVQSGSELKKPGASVKVSCKASGYTFTNYALNWVRQAPGQGLEWMGWINTYSGVGTYAGEFKGRFVFSLDTSVSTAYLQISSLKAEDTAVYYCARRGFYGRRFFDVWGKGTTVTVSS
VL: DIQLTQSPSSLSASVGDRVTITCKASQSVDYDVDSYMHWYQQKPGKAPKLLIYAASNLASGVPSRFSGSGSGTDFTFTISSLQPEDIATYYCQQTIEDPPTFGGGTKVEIKR
notes: Humanized anti-EL antibody, human IgG4P heavy chain and kappa light chain; It was coated on the plate as the capture reagent in the target engagement immunoassay; also called S6F1-4P
For the molecule B1, the binding result is reported as “binds”.
